From FireProtDB (doi:10.1111/j.1432-1033.1993.tb17904.x)
Several values for one entry are separate records, joined by “and”; a condition that tells them apart may be missing. Identical values can stand only once.

Settings: Carica papaya, Thermal, DSC, glycine-HCl 5 mM, reversible: yes, whole UniProt chain shown

B1: Papain wild type, P00784 (protein)
chain: MAMIPSISKLLFVAICLFVYMGLSFGDFSIVGYSQNDLTSTERLIQLFESWMLKHNKIYKNIDEKIYRFEIFKDNLKYIDETNKKNNSYWLGLNVFADMSNDEFKEKYTGSIAGNYTTTELSYEEVLNDGDVNIPEYVDWRQKGAVTPVKNQGSCGSCWAFSAVVTIEGIIKIRTGNLNEYSEQELLDCDRRSYGCNGGYPWSALQLVAQYGIHYRNTYPYEGVQRYCRSREKGPYAAKTDGVRQVQPYNEGALLYSIANQPVSVVLEAAGKDFQLYRGGIFVGPCGNKVDHAVAAVGYGPNYILIKNSWGTGWGENGYIRIKRGTGNSYGVCGLYTSSFYPVKN
unfolding enthalpy (calorimetric) (pH 1.9): 119 kcal/mol and 98.7 kcal/mol | unfolding enthalpy (van 't Hoff) (pH 1.9): 65.2 kcal/mol and 50.6 kcal/mol | unfolding enthalpy (calorimetric) (pH 2.4): 133 kcal/mol and 143 kcal/mol and 111 kcal/mol | unfolding enthalpy (van 't Hoff) (pH 2.4): 72.6 kcal/mol and 82.3 kcal/mol and 62.9 kcal/mol | Tm (pH 2.9): 69.5 °C and 70.4 °C | unfolding enthalpy (calorimetric) (pH 2.9): 154 kcal/mol and 162 kcal/mol | unfolding enthalpy (van 't Hoff) (pH 2.9): 79.6 kcal/mol and 89.2 kcal/mol | unfolding enthalpy (calorimetric) (pH 3.5): 206 kcal/mol and 226 kcal/mol and 189 kcal/mol | unfolding enthalpy (van 't Hoff) (pH 3.5): 113 kcal/mol and 118 kcal/mol and 98.9 kcal/mol | unfolding enthalpy (calorimetric) (pH 3.9): 229 kcal/mol and 232 kcal/mol and 198 kcal/mol | unfolding enthalpy (van 't Hoff) (pH 3.9): 132 kcal/mol and 130 kcal/mol and 114 kcal/mol
